# From the nanobody polyreactivity screen of Harvey et al. (2022)
# Experiment: yeast display, Sf9 membrane polyspecificity reagent, FACS + sequencing; frameworks hold sequencing errors
# Method in brief: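 After 36–48 hours of galactose induction, yeast (Saccharomyces cerevisiae BJ5465) displaying a synthetic nanobody library were stained at 4 °C for 1 hour with 10% biotinylated, detergent-solubilized Sf9 membrane reagent. Streptavidin microbeads enriched the stained cells before FACS sorting into low and high (top ~1%) gates on anti-HA and streptavidin fluorescence. Each clone's polyreactivity label reflects its gate of origin.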
row,Sequence,polyreactivity (PSR sort gate)
1,QVQLVESGGGLVQAGGSLPLSCAASGFTFYRYTMVWYRQAPGKERELVAAISRGGRTYYADSVKGRFTISRDNAKNTDYLQMNSLKPEDTAVYYCNARYPSADDWGQGTQVTVSS,high polyreactivity
2,QVQLVESGGGLVQAGGSLPLSCAASGIIFPYNAMGWSRQAPGKERELVAAITGGGSTYYADSVKGRFTISRDNAKNTVYLPMNSLKPEDSAVYYCAADGSGPGYDYWGQGTQVTVSS,low polyreactivity
3,QVQLVESGGGLVQAGGSLPLSCAASGLIINYYVMGWYRQAPGKERELVAANTISGGRSYYADSVKVRFTISRDNAKNTVYLQMKCLNPEDTAVYYCARRFGPYRKGYQSYGIYDYWGQGTHVTVSS,high polyreactivity
4,QVQLVESGGGLVQAGGSLPLSCAASGRIFWDYDMGRYRQAHGKERELVAVITFSGDSTYYADSVKGRFTISRDNAKNTVYLQMNSLKPEDTAVYYCASARAIRQFWYVATFEYWGQGTQVTVSS,low polyreactivity
5,QVQLVESGGGLVQAGGSLPLSCAASGSTFGSYAMGWYRQAPGKERELVAAISYSGGSTYYADSVKGRFTISRDNEKNTVFLQMNSLKPEDTAVYYCATVRKYRAMDYWGQGTQVSVSS,high polyreactivity
6,QVQLVESGGGLVQAGGSLPLSCAASGSTLSGYAMGWYRQAPGKEREMVAAITKSGGRTYYADSVKGRFTISRDNAKNTVYLQMNSLKPEDTAVYYCAKAYPGTYREYDYWGQGTQVTVSS,high polyreactivity
7,QVQLVESGGGLVQAGGSLPLSCAASRRTLYTNTMGWYRQAPGKESELDAGISKRGGSTYYADSVKGRFTITRDTAKNTVYLQMNSRKPEDTAVYYCNAPVSYWSRFRSPIYEYWGQGTQVTVSS,high polyreactivity
8,QVQLVESGGGLVQAGGSLPLSCAATGRTFSYNAMGSYRQAPAKETELVAAISSGGTTNYADSVKGRFTISRDNAKNTVYLQMNSVKPDDTAVYYCNADRLVWSFTDYGFSQYDYWGQGTQVTVSS,low polyreactivity
9,QVQLVESGGGLVQAGGSLRFICAASGGISSSNAMGWYRQAHGKERELVAGINSRGGSTYADSVKGRFTISRANAKNTVYLQMNSLKPEDTAVYYCAAAPTYKWRRKNYDYWGQGTQVTVAS,high polyreactivity
10,QVQLVESGGGLVQAGGSLRFRCAASGFTFGHYAIVWYRQAPGKERELVAAISKSGTRTYYADSVKGRFTISRDNAKNTVYLQMTSLKPEDTAVYYCATTAYNGYDYWGQGTQVTVSS,high polyreactivity
11,QVQLVESGGGLVQAGGSLRFSCAASGFIFRDNAMVWYRRAPGKERELVAAISYSGGSTYYADSVKGRFTISRDNAKNTVYLQMNSVKPEDTAVYYCAASYGPKRRGYWGQGTQVTVSS,high polyreactivity
12,QVQLVESGGGLVQAGGSLRFSCAASGFTFSVYAMGWYRQAPGTEMELVAAIHWSGGSTYYADSVKGRFTISRDNAKNTVYLQMNSLKPEDTAVYYCNTLYWYTRHVVDYWGQGTQVTVSS,high polyreactivity
13,QVQLVESGGGLVQAGGSLRFSCAASGGIFWYNAMGWYRQAPGKERELVAAISASTGSTYYADSVKGRFTISRDNAKNTVYLQMNSLKPEDTAVYYCAATRYRSARYAYGHWGQGTQVTVSS,high polyreactivity
14,QVQLVESGGGLVQAGGSLRFSCAASGGTFQGNAMGWYRQAPGKEREFVATITRGGGSTYYADSVKGRFTISRDNAKNTVYLQMNSLKPEDTAVYYCNAKPSYYQRYNYWGQGTQVTVSS,high polyreactivity
15,QVQLVESGGGLVQAGGSLRFSCAASGINIWTNVMGWYIQAPRKESEFVAAISRSGGSTYYADSVKGSFTISRDNAKNTVYLQMISLKPEDTAVYYCAARWSYSVQKFDYWGQGTQLTVSS,high polyreactivity
16,QVQLVESGGGLVQAGGSLRFSCAASGRIFGGNTMGWYRQAPGKERELVATIRSGDSTYYADSVKGRFTISRDNAKNTVYLQMNSLKPEDTAVYYCGYDYWGQGTQVTVSS,low polyreactivity
17,QVQLVESGGGLVQAGGSLRFSCAASGRTFVPYAMGWYRQAPGKERELVARIDSSGGSTYYADSVKGRFTISRDNAKNTVYLQMNSLKPEDTAVYYCAAVFYYWSLRSYYWGQGTQVTVSS,high polyreactivity
